Columns and labels:
[1] = molecular target: human CD4 antigen expressed on rat T cell line NB2-6TG (human) (UniProt P01730); assay: FACS, NB2-6TG cells transfected with human CD4; Experiment 1; control antibody at 2.5 µg/ml
[2] = molecular target: human CD4 antigen expressed on rat T cell line NB2-6TG (human) (UniProt P01730); assay: FACS, NB2-6TG cells transfected with human CD4; Experiment 1; control antibody at 10 µg/ml
[3] = molecular target: human CD4 antigen expressed on rat T cell line NB2-6TG (human) (UniProt P01730); assay: FACS, NB2-6TG cells transfected with human CD4; Experiment 1; control antibody at 40 µg/ml
[4] = molecular target: human CD4 antigen expressed on rat T cell line NB2-6TG (human) (UniProt P01730); assay: FACS, NB2-6TG cells transfected with human CD4; Experiment 1; control antibody at 100 µg/ml

Mean cellular Fluorescence [1]: 8.6 | Mean cellular Fluorescence [2]: 9 | Mean cellular Fluorescence [3]: 9.4 | Mean cellular Fluorescence [4]: 11.6
Substance: reshaped CAMPATH-1 antibody
